Assay results taken from patent US20220387578A1.

Assays:
Test in all cases: ELISA
[1] = target: H3 HA A/Texas/50/2012, recombinant soluble trimer (influenza A virus)
[2] = target: H1 HA A/Solomon Islands/03/2006 (H1N1), recombinant soluble trimer (influenza A virus)
[3] = target: H1 HA A/Texas/36/1991 (H1N1), recombinant soluble trimer (influenza A virus)

Measured: EC50 relative to wild type rFluA-20

B1: rFluA-20 heavy chain mutant Y100aA (antibody, V domains shown)
VH: QVQLQESGPGLVKPSETLSLTCSVSGVSVTSDIYYWTWIRQPPGKGLEWIGYIFYNGDTNYNPSLKSRVTMSIDTSKNEFSLRLTSVTAADTAVYFCARGTEDLGACSSGSCPNHWGQGTLVTVSS
VL: DIQMTQSPSSLSASIGDRVTITCRPSQNIRSFLNWFQHKPGKAPKLLIYAASNLQSGVPSRFSGSGSGTEFTLTIRSLQPEDFATYYCQQSYNTPPTFGQGTKVEIK
> 100 fold: [1] | [2] | [3]
